Reference: patent publication US20260234272A1 (SCHOLAR ROCK, published 2026)

Tests used:
[1] = target: T1, human LTBP1-proTGFβ1 complex (human, UniProt Q14766 347-1721; P01137 30-390); assay: Octet binning: 500 nM complex pre-incubated with 1 µM first antibody SR-AB13; competitor: second antibody SR-AB2 on AHC tip
T1 construct: Complex of presenting molecule LTBP1 disulfide-linked to a proTGFβ1 homodimer; also called proTGFβ1:LTBP1 complex; LTBP1-TGFβ1 complex

[2] = target: T1, human LTBP1-proTGFβ1 complex; assay: Octet binning: 500 nM complex pre-incubated with 1 µM first antibody SR-AB13; competitor: second antibody SR-AB1 on AHC tip
[3] = target: T1, human LTBP1-proTGFβ1 complex; assay: Octet binning: 500 nM complex pre-incubated with 1 µM first antibody SR-AB13; competitor: second antibody SR-AB13 on AHC tip
[4] = target: T1, human LTBP1-proTGFβ1 complex; assay: Octet binning: 500 nM complex pre-incubated with 1 µM first antibody SR-AB13; competitor: second antibody SR-AB10 on AHC tip
GARP-proTGFβ1 complex = target: T2, GARP-proTGFβ1 complex (human, UniProt Q14392 20-627; P01137 30-390, limits assumed); assay: Octet, yeast expressed IgG1Agly; concentration not shown
T2 construct: In the cell assays GARP was overexpressed from a human plasmid (whole, on cells); also called GARP-TGFβ1
T2 sequence (Q14392 20-627 limits assumed, chain 1 of 2): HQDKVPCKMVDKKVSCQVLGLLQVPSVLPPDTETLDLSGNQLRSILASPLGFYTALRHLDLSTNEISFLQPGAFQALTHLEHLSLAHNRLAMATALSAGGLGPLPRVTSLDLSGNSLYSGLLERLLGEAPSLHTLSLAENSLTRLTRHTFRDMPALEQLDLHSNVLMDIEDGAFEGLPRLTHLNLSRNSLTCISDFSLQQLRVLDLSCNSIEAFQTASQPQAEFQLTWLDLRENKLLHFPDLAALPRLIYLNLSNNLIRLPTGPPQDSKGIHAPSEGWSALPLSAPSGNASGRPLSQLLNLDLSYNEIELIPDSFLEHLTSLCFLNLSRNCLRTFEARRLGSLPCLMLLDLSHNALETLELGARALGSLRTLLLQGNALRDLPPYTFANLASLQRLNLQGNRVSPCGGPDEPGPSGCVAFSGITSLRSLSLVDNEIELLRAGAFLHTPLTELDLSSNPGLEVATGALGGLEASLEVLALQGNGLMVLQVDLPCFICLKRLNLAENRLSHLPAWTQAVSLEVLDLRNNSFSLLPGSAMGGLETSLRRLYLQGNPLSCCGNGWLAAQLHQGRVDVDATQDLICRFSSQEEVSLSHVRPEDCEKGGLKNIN
T2 sequence (P01137 30-390 limits assumed, chain 2 of 2): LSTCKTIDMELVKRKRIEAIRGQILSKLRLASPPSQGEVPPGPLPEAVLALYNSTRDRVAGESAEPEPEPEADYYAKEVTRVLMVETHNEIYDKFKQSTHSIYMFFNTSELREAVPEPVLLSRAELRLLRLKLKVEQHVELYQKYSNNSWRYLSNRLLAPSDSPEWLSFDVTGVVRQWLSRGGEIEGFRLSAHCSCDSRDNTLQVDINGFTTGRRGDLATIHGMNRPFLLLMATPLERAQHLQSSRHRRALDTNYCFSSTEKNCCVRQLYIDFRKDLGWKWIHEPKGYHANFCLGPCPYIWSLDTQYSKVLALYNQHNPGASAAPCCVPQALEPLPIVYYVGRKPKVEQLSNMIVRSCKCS

[5] = target: T1, human LTBP1-proTGFβ1 complex; assay: Octet binning: 500 nM complex pre-incubated with 1 µM first antibody SR-AB10; competitor: second antibody SR-AB13 on AHC tip
Description: (§1) 500 nM of human LTBP1-proTGFβ1 complex was pre-incubated with 1 μM of each test antibody. After an overnight incubation, the LTBP1-[…] first antibody was tested for binding to a second antibody which was immobilized to an Anti-Human IgG Fc Capture (AHC) sensor tip at 67 nM.
(§2) Binding of the complex to a specific second antibody was normalized to the uninhibited interaction, that is the complex in the presence of HuNeg control antibody. Normalized responses less than 70% or 0.7 of the uninhibited interaction were considered antibodies that cross block.

[6] = target: T1, human LTBP1-proTGFβ1 complex; assay: Octet binning: 500 nM complex pre-incubated with 1 µM first antibody SR-AB10; competitor: second antibody SR-AB2 on AHC tip
Description: as §1, §2

[7] = target: T1, human LTBP1-proTGFβ1 complex; assay: Octet binning: 500 nM complex pre-incubated with 1 µM first antibody SR-AB10; competitor: second antibody SR-AB1 on AHC tip
Description: as §1, §2

[8] = target: T1, human LTBP1-proTGFβ1 complex; assay: Octet binning: 500 nM complex pre-incubated with 1 µM first antibody SR-AB10; competitor: second antibody SR-AB10 on AHC tip
Description: as §1, §2

[9] = target: T1, human LTBP1-proTGFβ1 complex; assay: Octet binning: 500 nM complex pre-incubated with 1 µM first antibody SR-AB2; competitor: second antibody SR-AB13 on AHC tip
Description: as §1, §2

[10] = target: T1, human LTBP1-proTGFβ1 complex; assay: Octet binning: 500 nM complex pre-incubated with 1 µM first antibody SR-AB2; competitor: second antibody SR-AB2 on AHC tip
Description: as §1, §2

[11] = target: T1, human LTBP1-proTGFβ1 complex; assay: Octet binning: 500 nM complex pre-incubated with 1 µM first antibody SR-AB2; competitor: second antibody SR-AB10 on AHC tip
Description: as §1, §2

[12] = target: T1, human LTBP1-proTGFβ1 complex; assay: Octet binning: 500 nM complex pre-incubated with 1 µM first antibody SR-AB2; competitor: second antibody SR-AB1 on AHC tip
Description: as §1, §2

T1 sequence (Q14766 347-1721 limits assumed, chain 1 of 2): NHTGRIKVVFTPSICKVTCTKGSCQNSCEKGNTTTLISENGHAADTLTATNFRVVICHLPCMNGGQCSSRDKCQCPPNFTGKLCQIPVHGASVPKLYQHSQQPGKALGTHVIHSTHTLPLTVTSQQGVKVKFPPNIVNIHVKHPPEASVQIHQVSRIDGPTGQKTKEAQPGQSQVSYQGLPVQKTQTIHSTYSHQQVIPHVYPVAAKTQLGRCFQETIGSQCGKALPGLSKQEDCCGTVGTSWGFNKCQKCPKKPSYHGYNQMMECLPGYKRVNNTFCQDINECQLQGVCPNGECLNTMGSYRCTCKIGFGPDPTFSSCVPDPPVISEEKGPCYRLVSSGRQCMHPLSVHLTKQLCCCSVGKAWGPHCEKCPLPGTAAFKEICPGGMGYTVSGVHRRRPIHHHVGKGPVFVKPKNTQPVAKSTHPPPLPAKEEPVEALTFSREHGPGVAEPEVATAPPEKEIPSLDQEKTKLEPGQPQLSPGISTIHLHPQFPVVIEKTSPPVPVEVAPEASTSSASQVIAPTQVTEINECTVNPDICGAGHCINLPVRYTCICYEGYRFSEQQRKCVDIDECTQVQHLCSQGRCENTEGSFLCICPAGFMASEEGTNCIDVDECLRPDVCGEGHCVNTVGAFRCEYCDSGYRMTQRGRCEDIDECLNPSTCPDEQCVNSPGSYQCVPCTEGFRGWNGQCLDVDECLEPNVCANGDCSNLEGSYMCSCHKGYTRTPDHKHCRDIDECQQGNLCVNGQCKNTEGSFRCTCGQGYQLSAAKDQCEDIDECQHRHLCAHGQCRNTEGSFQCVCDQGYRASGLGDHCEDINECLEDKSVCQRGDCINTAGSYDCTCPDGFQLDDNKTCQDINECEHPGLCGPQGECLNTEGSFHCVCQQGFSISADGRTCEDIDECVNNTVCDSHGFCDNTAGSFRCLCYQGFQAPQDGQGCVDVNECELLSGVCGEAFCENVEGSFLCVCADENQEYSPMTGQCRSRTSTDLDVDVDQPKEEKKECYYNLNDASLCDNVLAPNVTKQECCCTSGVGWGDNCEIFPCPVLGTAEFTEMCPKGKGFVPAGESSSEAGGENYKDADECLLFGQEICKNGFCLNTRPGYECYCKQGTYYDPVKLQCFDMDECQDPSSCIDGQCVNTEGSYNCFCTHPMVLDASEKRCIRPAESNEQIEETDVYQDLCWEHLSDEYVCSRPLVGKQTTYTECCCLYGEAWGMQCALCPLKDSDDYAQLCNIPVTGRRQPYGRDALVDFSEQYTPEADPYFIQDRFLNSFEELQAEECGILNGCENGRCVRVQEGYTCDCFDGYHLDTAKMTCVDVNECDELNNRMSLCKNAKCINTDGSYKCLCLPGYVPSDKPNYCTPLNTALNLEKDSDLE
T1 sequence (P01137 30-390 limits assumed, chain 2 of 2): as the sequence (P01137 30-390 limits assumed, chain 2 of 2) above

B1: SR-AB13 (antibody, V domains shown)
VH: QLQLQESGPGLVKPSETLSLTCTVSGGSISSSSYYWGWIRQPPGKGLEWIGSISYSGSTYYNPSLKSRVTISVDTSKNQFSLKLSSVTAADTAVYYCARDPSYDSIAGMDVWGQGTTVTVSS
VL: DIQLTQSPSSLSASVGDRVTITCRASQSISSYLNWYQQKPGKAPKLLIYAASNLQSGVPSRFSGSGSGTDFTLTISSLQPEDFATYYCQQSFDFPFTFGGGTKVEIK
- normalized response (relative to HuNeg control) [1]: 1.29 fraction of uninhibited interaction
- normalized response (relative to HuNeg control) [2]: 1.08 fraction of uninhibited interaction
- normalized response (relative to HuNeg control) [3]: 0.47 fraction of uninhibited interaction
- normalized response (relative to HuNeg control) [4]: 1.38 fraction of uninhibited interaction

B2: SR-AB10 (antibody, V domains shown)
VH: QLQLQESGGGVVQPGRSLRLSCAASGFTFNNYPIHWVRQAPGKGLEWVAVMSYDGINKYYADSVKGRFTISRDNSKNTLYLQMNSLRAEDTAVYYCARPRIAARRGGFDYWGQGTLVTVSS
VL: NFMLTQPHSVSESPGKTVTISCTRSSGNIDNNYVQWYQQRPGSSPTTVIYEDNQRPSGVPDRFSGSIDSSSNSASLTISGLKTEDEADYYCQSYDSDNQGVVFGGGTKLTVL
- binding result (GARP-proTGFβ1 complex): no binding
- normalized response (relative to HuNeg control) [5]: 1.27 fraction of uninhibited interaction
- normalized response (relative to HuNeg control) [6]: 1.53 fraction of uninhibited interaction
- normalized response (relative to HuNeg control) [7]: 0.82 fraction of uninhibited interaction
- normalized response (relative to HuNeg control) [8]: 0.51 fraction of uninhibited interaction

B3: SR-AB2 (antibody, V domains shown)
VH: QVQLVQSGAEVKKPGASVKVSCKASGYTFTSYGISWVRQAPGQGLEWMGWISAYNGNTNYAQKLQGRVTMTTDTSTSTAYMELRSLRSDDTAVYYCARAPLGNFDSWGQGTMVTVSS
VL: NFMLTQPHSVSESPGKTVTISCTRSSGSIASNYVQWYQQRPGSSPTTVIYEDNQRPSGVPDRFSGSIDSSSNSASLTISGLKTEDEADYYCQSYDSSNHPVVFGGGTKLTVL
- normalized response (relative to HuNeg control) [9]: 1.31 fraction of uninhibited interaction
- normalized response (relative to HuNeg control) [10]: 0.47 fraction of uninhibited interaction
- normalized response (relative to HuNeg control) [11]: 1.54 fraction of uninhibited interaction
- normalized response (relative to HuNeg control) [12]: 1.11 fraction of uninhibited interaction
